According to patent US20160333418A1 (SANTA MARIA BIOTHERAPEUTICS, published 2016):
Where a chain is given by its changes, count along the chain named. In names and notes the source's numbering stands. One block for each binder: values may come before it.

Legend:
[1] = target: GDF-11 (Homo sapiens (Human)) (UniProt O95390); assay: KinExA solution equilibrium binding, ligand-coated beads, room temperature
myostatin [2] = target: T1, myostatin (human, UniProt O14793 267-375); assay: cell-based or functional assay
T1 sequence: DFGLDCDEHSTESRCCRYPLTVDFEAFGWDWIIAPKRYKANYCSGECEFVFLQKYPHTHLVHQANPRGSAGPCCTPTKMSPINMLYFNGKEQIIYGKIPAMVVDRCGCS

activin A [3] = target: T2, activin A (human, UniProt P08476 311-426); assay: cell-based or functional assay
T2 sequence: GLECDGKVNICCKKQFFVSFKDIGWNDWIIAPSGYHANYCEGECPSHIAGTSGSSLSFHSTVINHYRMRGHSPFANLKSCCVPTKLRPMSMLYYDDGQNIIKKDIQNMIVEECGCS

myostatin [4] = target: T1, myostatin; assay: KinExA solution equilibrium binding, ligand-coated beads, room temperature
Method: (§1) Solution-based equilibrium-binding assays using KinExA™ technology (Sapidyne Instruments, Inc.) were used to determine the dissociation equilibrium (KD) of ligand binding to ActRIIB-Fc polypeptides. UltraLink Biosupport beads (Pierce) was pre-coated with about 100 μg/m1 each of myostatin, GDF-11, and activin A overnight, and then blocked with BSA. 1 pM and 3 pM of ActRIIB-Fc (E28W) (SEQ ID NO: 21) and svActRIIB-Fc (E28W, S44T) (SEQ ID NO: 10) samples were incubated with various concentrations (0.7 fM to 160 pM) of myostatin, activin A, and GDF-11 respectively in sample buffer at room temperature for 8 hours before being run through the ligand-coated beads. The amount of the bead-bound soluble receptor was quantified by fluorescent (Cy5) labeled goat anti-human-Fc antibody at 1 mg/ml in superblock. The binding signal is proportional to the concentration of free soluble receptor at equilibrium with a given myostatin, activin A, or GDF-11 concentration. KD was obtained from the nonlinear regression of the competition curves using a dual-curve one-site homogeneous binding model provided in the KinEx A™ software (Sapidyne Instruments, Inc.).

activin A [5] = target: T2, activin A; assay: as above
Method: as §1

[6] = target: GDF-11 (Homo sapiens (Human)) (UniProt O95390); assay: cell-based or functional assay

Kd [1]: 0.1 pM | IC50, luciferase activity in C2C12/pMARE reporter cells, 4 nM ligand (myostatin [2]): 0.95 nM | IC50, luciferase activity in C2C12/pMARE reporter cells, 4 nM ligand (activin A [3]): 3.2 nM | Kd (myostatin [4]): 0.1 pM | Kd (activin A [5]): 0.2 pM | IC50, luciferase activity in C2C12/pMARE reporter cells, 4 nM ligand [6]: 2.4 nM
B1: ActRIIB-Fc (E28W) (Fc fusion)
chain: ETRWCIYYNANWELERTNQSGLERCEGEQDKRLHCYASWRNSSGTIELVKKGCWLDDFNCYDRQECVATEENPQVYFCCCEGNFCNERFTHLPEAGGPEVTYEPPPTAPTGGGGSVECPPCPAPPVAGPSVFLFPPKPKDTLMISRTPEVTCVVVDVSHEDPEVQFNWYVDGVEVHNAKTKPREEQFNSTFRVVSVLTVVHQDWLNGKEYKCKVSNKGLPAPIEKTISKTKGQPREPQVYTLPPSREEMTKNQVSLTCLVKGFYPSDIAVEWESNGQPENNYKTTPPMLDSDGSFFLYSKLTVDKSRWQQGNVFSCSVMHEALHNHYTQKSLSLSPGK
notes: also called ActRIIB-IgG2Fc (E28W); ActRIIB-IgG Fc (E28W)

Kd [1]: 0.1 pM | IC50, luciferase activity in C2C12/pMARE reporter cells, 4 nM ligand (myostatin [2]): 1.07 nM | IC50, luciferase activity in C2C12/pMARE reporter cells, 4 nM ligand (activin A [3]): 3.6 nM | Kd (myostatin [4]): 0.1 pM | Kd (activin A [5]): 0.1 pM | IC50, luciferase activity in C2C12/pMARE reporter cells, 4 nM ligand [6]: 2.4 nM
B2: svActRIIB-Fc (E28W, S44T) (Fc fusion)
chain: B1 chain with S20T
notes: also called svActRIIB-IgG2Fc (E28W, S44T); svActRIIB-IgG Fc (E28W, S44T)
